The values that follow come from patent publication US20240116985A1 (published 2024).

Starred links: 1 amine or outer side, 2 acyl side, 3 side chain; linkers in the order of their positions; H or OH if unused. Positions of bridges follow the written chain, without caps; N, C: chain ends. Non-standard residues stand in square brackets, D forms with d. Primed or numbered codes have the meaning given here. PyrS3″ = (S)-3-amino-1-((hex-5-en-1-yloxy)carbonyl)pyrrolidine-3-carboxylic acid (stapling residue), C=CCCCCOC(=O)N1CC[C@@](N[*:1])(C(=O)[*:2])C1; B5(23) = 2-amino-2-(pent-4-en-1-yl)hept-6-enoic acid (2,2-bis(4-pentenyl)glycine), stitching residue, C=CCCCC(CCCC=C)(N[*:1])C(=O)[*:2]; B5(24) = 2-amino-2-(pent-4-en-1-yl)hept-6-enoic acid, 2,2-bis(4-pentenyl)glycine (stitching residue), C=CCCCC(CCCC=C)(N[*:1])C(=O)[*:2]; B5(4) = 2,2-bis(4-pentenyl)glycine = 2-amino-2-(pent-4-en-1-yl)hept-6-enoic acid (stitching residue), C=CCCCC(CCCC=C)(N[*:1])C(=O)[*:2]; B5(21) = 2-amino-2-(pent-4-en-1-yl)hept-6-enoic acid, bis(4-pentenyl)glycine (stitching residue), C=CCCCC(CCCC=C)(N[*:1])C(=O)[*:2]; B5″ = 2,2-bis(4-pentenyl)glycine, stitching residue, C=CCCCC(CCCC=C)(N[*:1])C(=O)[*:2]; Phe(2-Br) = N[C@@H](Cc1ccccc1Br)C(=O)O; Phe(2-Cl) = N[C@@H](Cc1ccccc1Cl)C(=O)O; Phe(2-F) = N[C@@H](Cc1ccccc1F)C(=O)O; Bta = N[C@@H](Cc1csc2ccccc12)C(=O)O; αAllylPro = C=CC[C@@]1(C(=O)O)CCCN1; S8 = C=CCCCCCC[C@](C)(N)C(=O)O; NMeS = CN[C@@H](CO)C(=O)O

The labels stand for the following.
T1: full-length beta-Catenin (Uniprot ID P35222) (Homo sapiens (Human), UniProt P35222 1-781)
T1 construct: also called bCat; B-Catenin
T1 sequence: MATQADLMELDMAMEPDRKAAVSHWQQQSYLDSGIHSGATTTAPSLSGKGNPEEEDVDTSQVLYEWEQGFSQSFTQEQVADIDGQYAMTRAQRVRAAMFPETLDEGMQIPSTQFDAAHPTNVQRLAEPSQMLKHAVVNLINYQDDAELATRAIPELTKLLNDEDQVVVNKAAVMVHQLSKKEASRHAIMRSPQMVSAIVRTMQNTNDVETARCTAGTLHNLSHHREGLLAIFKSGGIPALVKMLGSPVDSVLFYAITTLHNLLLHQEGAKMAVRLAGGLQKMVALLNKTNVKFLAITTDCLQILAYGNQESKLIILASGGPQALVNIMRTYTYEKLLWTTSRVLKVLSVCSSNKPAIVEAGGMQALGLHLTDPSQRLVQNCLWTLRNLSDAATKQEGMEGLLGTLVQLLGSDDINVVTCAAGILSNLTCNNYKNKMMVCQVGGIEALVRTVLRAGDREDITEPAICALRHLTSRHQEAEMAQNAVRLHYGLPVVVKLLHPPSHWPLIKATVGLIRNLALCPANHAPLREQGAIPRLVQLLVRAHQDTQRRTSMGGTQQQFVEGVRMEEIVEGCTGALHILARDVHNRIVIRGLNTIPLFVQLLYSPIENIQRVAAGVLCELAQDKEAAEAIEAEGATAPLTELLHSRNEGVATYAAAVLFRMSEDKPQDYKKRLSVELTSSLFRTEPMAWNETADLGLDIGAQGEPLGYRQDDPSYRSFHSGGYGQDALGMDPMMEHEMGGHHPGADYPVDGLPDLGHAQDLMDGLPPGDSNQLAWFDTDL

T2: full-length beta-Catenin (Uniprot ID P35222) (Homo sapiens (Human), UniProt P35222 1-781)
T2 construct: also called bCat; B-Catenin
T2 sequence: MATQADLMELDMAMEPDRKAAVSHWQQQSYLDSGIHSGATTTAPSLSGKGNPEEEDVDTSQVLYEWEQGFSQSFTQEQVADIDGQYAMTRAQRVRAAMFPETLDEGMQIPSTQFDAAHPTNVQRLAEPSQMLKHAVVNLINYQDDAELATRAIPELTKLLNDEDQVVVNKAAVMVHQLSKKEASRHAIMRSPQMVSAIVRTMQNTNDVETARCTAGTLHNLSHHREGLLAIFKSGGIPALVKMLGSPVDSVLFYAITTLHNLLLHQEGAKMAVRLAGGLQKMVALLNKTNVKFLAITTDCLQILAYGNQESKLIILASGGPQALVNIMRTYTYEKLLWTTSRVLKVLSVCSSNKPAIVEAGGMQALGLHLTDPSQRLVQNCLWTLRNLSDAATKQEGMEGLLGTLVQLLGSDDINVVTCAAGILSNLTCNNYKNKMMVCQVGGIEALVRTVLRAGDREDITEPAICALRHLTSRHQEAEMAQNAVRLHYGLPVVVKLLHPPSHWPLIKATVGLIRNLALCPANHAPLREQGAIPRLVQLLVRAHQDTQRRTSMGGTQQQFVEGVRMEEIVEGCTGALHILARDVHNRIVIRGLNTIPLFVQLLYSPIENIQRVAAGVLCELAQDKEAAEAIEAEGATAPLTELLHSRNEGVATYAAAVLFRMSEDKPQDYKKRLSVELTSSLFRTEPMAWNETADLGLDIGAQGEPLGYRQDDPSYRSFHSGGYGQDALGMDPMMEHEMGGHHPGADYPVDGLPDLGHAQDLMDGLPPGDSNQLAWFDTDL

T3: full-length beta-Catenin (Uniprot ID P35222) (Homo sapiens (Human), UniProt P35222 2-781)
T3 construct: also called bCat; B-Catenin
T3 sequence: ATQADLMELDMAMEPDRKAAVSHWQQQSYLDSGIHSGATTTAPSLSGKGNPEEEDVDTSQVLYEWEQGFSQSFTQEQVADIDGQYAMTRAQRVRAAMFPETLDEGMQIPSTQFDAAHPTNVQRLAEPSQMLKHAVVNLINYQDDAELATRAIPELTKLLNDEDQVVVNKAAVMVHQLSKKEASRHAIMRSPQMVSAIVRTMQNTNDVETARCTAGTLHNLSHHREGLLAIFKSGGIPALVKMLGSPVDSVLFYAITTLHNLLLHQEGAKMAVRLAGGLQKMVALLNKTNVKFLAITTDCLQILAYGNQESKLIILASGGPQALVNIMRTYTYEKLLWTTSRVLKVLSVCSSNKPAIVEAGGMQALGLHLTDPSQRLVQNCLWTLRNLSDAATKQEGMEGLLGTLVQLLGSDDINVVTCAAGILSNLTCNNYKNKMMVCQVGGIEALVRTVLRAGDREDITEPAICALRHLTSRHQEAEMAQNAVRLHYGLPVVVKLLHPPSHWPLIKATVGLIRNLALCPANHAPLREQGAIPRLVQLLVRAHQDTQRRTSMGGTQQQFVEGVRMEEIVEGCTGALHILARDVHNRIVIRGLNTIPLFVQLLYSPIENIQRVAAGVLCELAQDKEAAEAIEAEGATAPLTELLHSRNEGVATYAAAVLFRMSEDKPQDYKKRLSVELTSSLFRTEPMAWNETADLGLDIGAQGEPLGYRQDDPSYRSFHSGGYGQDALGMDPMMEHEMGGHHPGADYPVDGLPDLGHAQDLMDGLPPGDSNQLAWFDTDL

T4: full-length beta-Catenin (Uniprot ID P35222) (Homo sapiens (Human), UniProt P35222 1-781)
T4 construct: The assay text says 'full-length'; also called bCat; B-Catenin
T4 sequence: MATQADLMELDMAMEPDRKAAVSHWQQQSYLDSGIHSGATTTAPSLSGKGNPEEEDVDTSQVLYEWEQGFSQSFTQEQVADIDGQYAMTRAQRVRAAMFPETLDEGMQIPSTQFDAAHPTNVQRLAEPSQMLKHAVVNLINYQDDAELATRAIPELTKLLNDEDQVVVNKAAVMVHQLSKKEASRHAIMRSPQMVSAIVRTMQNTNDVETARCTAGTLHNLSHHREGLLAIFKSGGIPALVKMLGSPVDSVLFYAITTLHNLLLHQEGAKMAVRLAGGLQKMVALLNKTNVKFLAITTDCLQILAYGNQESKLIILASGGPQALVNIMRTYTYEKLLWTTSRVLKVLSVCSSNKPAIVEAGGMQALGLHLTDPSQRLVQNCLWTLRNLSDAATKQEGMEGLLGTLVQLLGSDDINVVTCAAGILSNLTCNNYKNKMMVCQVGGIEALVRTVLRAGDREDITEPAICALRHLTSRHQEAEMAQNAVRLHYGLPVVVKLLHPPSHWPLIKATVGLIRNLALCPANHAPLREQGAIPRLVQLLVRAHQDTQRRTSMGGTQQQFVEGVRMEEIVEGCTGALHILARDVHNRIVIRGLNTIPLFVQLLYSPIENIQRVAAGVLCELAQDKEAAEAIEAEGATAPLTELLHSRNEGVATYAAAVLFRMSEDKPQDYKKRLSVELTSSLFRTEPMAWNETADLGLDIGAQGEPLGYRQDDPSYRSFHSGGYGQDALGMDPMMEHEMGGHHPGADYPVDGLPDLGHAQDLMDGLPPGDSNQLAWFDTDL

B1: I-463 (peptide)
peptide: Ac-[αAllylPro]DA[B5(21)]DEAAFN[PyrS3″]F[Bta]Q-NH2
modifications: staple 1-4, 4-11; also: earlier-eluting HPLC staple isomer
notes: Stapled peptide; earlier-eluting HPLC peak (staple isomer composition)
B2: I-759 (peptide)
peptide: Ac-[αAllylPro]DL[B5(4)]DEAAFN[S8]F[Bta][NMeS]-NH2
modifications: staple 1-4, 4-11; also: earlier eluting HPLC peak (staple isomer)
notes: Stapled peptide; same description as I-760, earlier eluting HPLC peak (staple isomer composition); also called Ac-PL3-Asp-Leu-B5-Asp-Glu-Ala-Ala-Phe-Asn-S8-Phe-BztA-NMeS-NH2
B3: I-756 (peptide)
peptide: Ac-[αAllylPro]DL[B5(4)]DEAAFN[S8]F[Bta][dS]-NH2
modifications: staple 1-4, 4-11
notes: Stapled peptide; also called Ac-PL3-Asp-Leu-B5-Asp-Glu-Ala-Ala-Phe-Asn-S8-Phe-BztA-dSer-NH2
B4: I-754 (peptide)
peptide: XDLXDEAAFNXFXT
modifications: not fully specified; Ac-PL3-Asp-Leu-B5-Asp-Glu-Ala-Ala-Phe-Asn-S8-Phe-BztA-dThr-NH2: N-terminal acetyl; C-terminal amide; PL3 at 1, B5 at 4, S8 at 11 (stapled 1-4 and 4-11 by olefin metathesis); BztA at 13; D-Thr at 14
notes: Stapled peptide; also called Ac-PL3-Asp-Leu-B5-Asp-Glu-Ala-Ala-Phe-Asn-S8-Phe-BztA-dThr-NH2
B5: I-757 (peptide)
peptide: Ac-[αAllylPro]DL[B5(4)]DEAAFN[S8]F[Bta][dN]-NH2
modifications: staple 1-4, 4-11; also: earlier eluting HPLC peak (staple isomer)
notes: Stapled peptide; same description as I-758, earlier eluting HPLC peak (staple isomer composition); also called Ac-PL3-Asp-Leu-B5-Asp-Glu-Ala-Ala-Phe-Asn-S8-Phe-BztA-dAsn-NH2
B6: I-755 (peptide)
peptide: Ac-[αAllylPro]DL[B5(4)]DEAAFN[S8]F[Bta][dT]-NH2
modifications: staple 1-4, 4-11; also: later eluting HPLC peak (staple isomer)
notes: as for B4
B7: I-758 (peptide)
peptide: Ac-[αAllylPro]DL[B5(4)]DEAAFN[S8]F[Bta][dN]-NH2
modifications: staple 1-4, 4-11; also: later eluting HPLC peak (staple isomer)
notes: Stapled peptide; also called Ac-PL3-Asp-Leu-B5-Asp-Glu-Ala-Ala-Phe-Asn-S8-Phe-BztA-dAsn-NH2
B8: I-760 (peptide)
peptide: Ac-[αAllylPro]DL[B5″]DEAAFN[S8]F[Bta][NMeS]-NH2
modifications: staple 1-4, 4-11
notes: Stapled peptide; also called Ac-PL3-Asp-Leu-B5-Asp-Glu-Ala-Ala-Phe-Asn-S8-Phe-BztA-NMeS-NH2
B9: I-397 (peptide)
peptide: XDAXDHAAFVXFXQ
modifications: not fully specified; as printed: Ac-PL3-Asp-Ala-B5-Asp-His-Ala-Ala-Phe-Val-S8-3FF-BztA-Gln-NH2; N-terminal acetyl, C-terminal amide; staples PL3(1)-B5(4) and B5(4)-S8(11) by olefin metathesis
notes: Stapled (stitched) peptide

One experiment addresses T1, full-length beta-Catenin (Uniprot ID …). The experiment in a line: fluorescence polarization competition; full-length beta-catenin, competitor 5FAM-TCF4(10-53) probe. In short, it runs like this: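 Plate incubated 60 minutes at 20° C. protected from light before reading. Concentrations given are final.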
The molecule B1 had an IC50 of 92 nM.

The target in the next experiment is T2, full-length beta-Catenin (Uniprot ID …). The experiment in a line: fluorescence polarization competition; full-length beta-catenin with 5FAM-TCF4(10-53) probe as competitor. As for the experimental part:
(§1) The plate was incubated protected from light for 60 minutes at 20° C. prior to read. Reads were performed on a CLARIOstar plate reader (BMG Labtech) in duplicate, and data were fitted to a 1:1 binding model with hill slope using an in-house script. All provided concentrations are final concentrations.
Turning to B2, the IC50 was 1530 nM. On the same count and under the same terms, the figure for B3 is 56 nM. Same read-out and setting: with B4 the figure was 115 nM; with B5, 64 nM.

For B6, the IC50 amounted to 88 nM. As to B7, the IC50 amounted to 47 nM. On the same count and under the same terms, with B8 the figure was 608 nM.

The target in another experiment is T3, full-length beta-Catenin (Uniprot ID …). The experiment in a line: fluorescence polarization competition; 10 nM full-length beta-catenin + 10 nM 5FAM-TCF4(10-53) probe, peptide titrated. The method, then:
as §1
Ac-[αAllylPro]DA[B5(23)]DEAAFQ[S8]F[Bta]Q-NH2 (staple 1-4, 4-11, Stapled (stitched) peptide) [I-406]: the EC50 was 94 nM. The same measure, in the same setting: with B9 the figure was 2230 nM.

Another experiment deals with T4, full-length beta-Catenin (Uniprot ID …). Kind of experiment: fluorescence polarization competition; peptide titrated against 10 nM full-length beta-catenin + 10 nM 5FAM-TCF4(10-53) probe. The method, then: as §1
Take Ac-[αAllylPro]DA[B5(24)]DEAAFN[S8][Phe(2-Br)][Bta]Q-NH2 (staple 1-4, 4-11, Stapled peptide composition) [I-436]: the IC50 worked out at 56 nM. Same read-out and setting: with Ac-[αAllylPro]DA[B5(24)]DEAAFN[S8][Phe(2-F)][Bta]Q-NH2 (staple 1-4, 4-11, Stapled peptide composition) [I-434] the figure was 67.5 nM; with Ac-[αAllylPro]DA[B5(24)]DEAAFN[S8][Phe(2-Cl)][Bta]Q-NH2 (staple 1-4, 4-11, Stapled peptide composition) [I-435], 70 nM.
